Assay results taken from paper PMC5519724, “Direct binding to GABARAP family members is essential for HIV-1 Nef plasma membrane localization” (Scientific Reports, 2017).

Target: T1, recombinant HIV-1 Nef (SF2) with C-terminal hexahistidine tag (HIV-1 (SF2), UniProt P03407)
T1 construct: also called Nef protein; Nef-Sepharose
Test: SPR; in vitro; estimate of the affinity; who was immobilised and the conditions are not told in the text (Supplementary Fig. 5)
Conditions: both partners purified

T1 sequence (P03407 whole entry): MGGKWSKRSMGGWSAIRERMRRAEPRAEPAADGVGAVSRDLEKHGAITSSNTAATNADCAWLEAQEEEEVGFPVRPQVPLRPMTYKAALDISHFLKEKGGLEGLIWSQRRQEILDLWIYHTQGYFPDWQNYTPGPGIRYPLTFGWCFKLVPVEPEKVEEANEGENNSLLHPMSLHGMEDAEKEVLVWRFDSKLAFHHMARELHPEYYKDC

B1: recombinant human GABARAP (natural protein)
chain: MKFVYKEEHPFEKRRSEGEKIRKKYPDRVPVIVEKAPKARIGDLDKKKYLVPSDLTVGQFYFLIRKRIHLRAEDALFFFVNNVIPPTSATMGQLYQEHHEEDFFLYIAYSDESVYGL
notes: also called 15N-GABARAP; [U-15N]-GABARAP
Q: Which Kd does the source give for B1 here?
A: The Kd was about 20 µM.
